# Reference: publication PMC7870876
# B1: Synaptophysin, P07825 1-307 (natural protein)
# chain: MDVVNQLVAGGQFRVVKEPLGFVKVLQWVFAIFAFATCGSYTGELRLSVECANKTESALNIEVEFEYPFRLHQVYFDAPSCVKGGTTKIFLVGDYSSSAEFFVTVAVFAFLYSMGALATYIFLQNKYRENNKGPMMDFLATAVFAFMWLVSSSAWAKGLSDVKMATDPENIIKEMPMCRQTGNTCKELRDPVTSGLNTSVVFGFLNLVLWVGNLWFVFKETGWAAPFMRAPPGAPEKQPAPGDAYGDAGYGQGPGGYGPQDSYGPQGGYQPDYGQPASGGGGYGPQGDYGQQGYGQQGAPTSFSNQM
# Biological target: Synaptophysin (rat (endogenous in rat brain synaptic vesicles)), P07825
# Test: cross-linking; BS3 cross-linked synaptic vesicle proteins, gel electrophoresis, western blot with antibodies against Synaptobrevin-2 and Synaptophysin
# Settings: remark: other sources report otherwise
binder,measurement,value
B1,stoichiometry N,2
